Assay results from article PMC5605238.

B1: Holliday junction (HJ) (structured_DNA)
DNA 1: GACGCTGCCGAATTCTGGCTTGCTAGGACATCTTTGCCCACGTTGACCC
DNA 2: TGGGTCAACGTGGGCAAAGATGTCCTAGCAATGTAATCGTCTATGACGTT
DNA 3: CAACGTCATAGACGATTACATTGCTAGGACATGCTGTCTAGAGACTATCGA
DNA 4: ATCGATAGTCTCTAGACAGCATGTCCTAGCAAGCCAGAATTCGGCAGCGT
B2: D-loop (structured_DNA)
DNA 1: GGGTGAACCTGCAGGTGGGCGGCTGCTCATCGTAGGTTAGTGGTAGAATTCGGCAGCGTC
DNA 2: GACGCTGCCGAATTCTACCATGCCTTGCTAGGACATCTTTGCCCACCTGCAGGTTCACCC
DNA 3: TAAGAGCAAGATGTTCTATAAAAGATGTCCTAGCAAGGCA
B3: G4 (structured_DNA)
DNA: AAAGGGGGAGCTGGGGTAGATGGGAATGTGAGGGCAACAGGTGAGTCAACGTGTTGCCA
B4: Poly(dT) Fork (dsDNA)
DNA 1: TTTTTTTTTTTTTTTTTTTTTTTTTGTGTCACTCACATAGCGTTC
DNA 2: GAACGCTATGTGAGTGACACTTTTTTTTTTTTTTTTTTTTTTTTT
B5: Yeast Tel Fork (Poly(TG1-3) Fork) (dsDNA)
DNA 1: GGTGTGGTGTGGGTGTGGTGTGGGTGTGTCACTCACATAGCGTTC
DNA 2: GAACGCTATGTGAGTGACACTGGGTGTGGTGTGGGTGTGGTGTGG
B6: Human Tel Fork (Poly(TTAGGG) Fork) (dsDNA)
DNA 1: TTAGGGTTAGGGTTAGGGTTAGGGTGTGTCACTCACATAGCGTTC
DNA 2: GAACGCTATGTGAGTGACACTTAGGGTTAGGGTTAGGGTTAGGGT
B7: 25-nt Random Fork (dsDNA)
DNA 1: ACCGTTGTGCAACTGAGTGGACAACGTGTCACTCACATAGCGTTC
DNA 2: GAACGCTATGTGAGTGACACCAACAGGTGAGTCAACGTGTTGCCA
B8: 3' tail (dsDNA)
DNA 1: B7 DNA 2
DNA 2: GTGTCACTCACATAGCGTTC
B9: 5' tail (dsDNA)
DNA 1: B7 DNA 1
DNA 2: GAACGCTATGTGAGTGACAC
B10: Bubble (dsDNA)
DNA 1: GGTGAACCTGCAGGTGGGCGGCTGCTCATCGTAGGTTAGTTGGTAGAATTCGGCAGCGTC
DNA 2: GACGCTGCCGAATTCTAGGTTGATTGGATGCTACTCGTCGGCGCCACCTGCAGGTTCACC

target: T1, RecQ4 (Homo sapiens, UniProt O94761 1-1208); test: EMSA
T1 sequence: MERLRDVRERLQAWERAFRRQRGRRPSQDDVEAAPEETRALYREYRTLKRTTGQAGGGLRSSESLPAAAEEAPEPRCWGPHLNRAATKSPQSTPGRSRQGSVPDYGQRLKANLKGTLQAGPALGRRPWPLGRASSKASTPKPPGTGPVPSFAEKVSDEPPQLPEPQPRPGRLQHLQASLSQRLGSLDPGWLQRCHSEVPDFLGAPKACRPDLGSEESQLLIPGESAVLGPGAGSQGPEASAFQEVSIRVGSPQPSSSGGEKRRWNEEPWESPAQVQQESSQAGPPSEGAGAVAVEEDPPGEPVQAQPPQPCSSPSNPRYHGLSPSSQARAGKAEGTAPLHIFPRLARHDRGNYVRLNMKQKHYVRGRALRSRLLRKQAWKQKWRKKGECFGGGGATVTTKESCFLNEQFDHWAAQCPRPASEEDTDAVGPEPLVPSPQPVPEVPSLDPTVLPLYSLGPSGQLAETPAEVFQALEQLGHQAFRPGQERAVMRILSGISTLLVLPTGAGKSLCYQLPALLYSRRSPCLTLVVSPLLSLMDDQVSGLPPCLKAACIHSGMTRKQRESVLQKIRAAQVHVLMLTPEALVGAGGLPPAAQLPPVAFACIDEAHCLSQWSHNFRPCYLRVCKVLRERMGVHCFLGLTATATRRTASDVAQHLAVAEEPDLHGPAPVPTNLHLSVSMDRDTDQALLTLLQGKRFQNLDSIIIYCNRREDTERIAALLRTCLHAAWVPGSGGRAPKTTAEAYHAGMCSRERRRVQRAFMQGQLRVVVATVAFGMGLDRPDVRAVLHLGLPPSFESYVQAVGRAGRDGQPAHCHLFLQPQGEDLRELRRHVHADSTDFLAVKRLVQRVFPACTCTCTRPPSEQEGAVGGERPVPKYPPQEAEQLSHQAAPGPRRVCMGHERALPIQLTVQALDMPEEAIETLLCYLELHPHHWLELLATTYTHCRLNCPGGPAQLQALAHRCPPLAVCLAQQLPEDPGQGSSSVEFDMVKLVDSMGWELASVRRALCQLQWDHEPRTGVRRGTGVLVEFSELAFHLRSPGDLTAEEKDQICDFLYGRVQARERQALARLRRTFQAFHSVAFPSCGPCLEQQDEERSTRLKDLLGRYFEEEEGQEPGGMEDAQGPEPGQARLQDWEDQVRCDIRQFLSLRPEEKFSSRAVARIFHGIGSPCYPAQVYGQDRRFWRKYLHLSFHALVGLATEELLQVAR

Binder | Kd
TTTTTTTTTTTTTTTTTTTTTTTTTTTTTTTTTTTTTTTT (ssDNA) [Poly(dT) 40mer ssDNA] | 2.38 ± 0.15 nM
B1 | 90.1 ± 23.4 nM
B2 | 12.6 ± 1.8 nM
B3 | 12.3 ± 2.5 nM
B4 | 50.9 ± 10.4 nM
B5 | 18.5 ± 3.1 nM
B6 | 39.7 ± 8.3 nM
B7 | 108 ± 32.5 nM
B8 | 21.8 ± 4.2 nM
B9 | 102 ± 29.4 nM
B10 | 16.8 ± 2.3 nM

target: T2, Hrq1 (Saccharomyces cerevisiae, UniProt Q05549 1-1077); test: EMSA
T2 sequence: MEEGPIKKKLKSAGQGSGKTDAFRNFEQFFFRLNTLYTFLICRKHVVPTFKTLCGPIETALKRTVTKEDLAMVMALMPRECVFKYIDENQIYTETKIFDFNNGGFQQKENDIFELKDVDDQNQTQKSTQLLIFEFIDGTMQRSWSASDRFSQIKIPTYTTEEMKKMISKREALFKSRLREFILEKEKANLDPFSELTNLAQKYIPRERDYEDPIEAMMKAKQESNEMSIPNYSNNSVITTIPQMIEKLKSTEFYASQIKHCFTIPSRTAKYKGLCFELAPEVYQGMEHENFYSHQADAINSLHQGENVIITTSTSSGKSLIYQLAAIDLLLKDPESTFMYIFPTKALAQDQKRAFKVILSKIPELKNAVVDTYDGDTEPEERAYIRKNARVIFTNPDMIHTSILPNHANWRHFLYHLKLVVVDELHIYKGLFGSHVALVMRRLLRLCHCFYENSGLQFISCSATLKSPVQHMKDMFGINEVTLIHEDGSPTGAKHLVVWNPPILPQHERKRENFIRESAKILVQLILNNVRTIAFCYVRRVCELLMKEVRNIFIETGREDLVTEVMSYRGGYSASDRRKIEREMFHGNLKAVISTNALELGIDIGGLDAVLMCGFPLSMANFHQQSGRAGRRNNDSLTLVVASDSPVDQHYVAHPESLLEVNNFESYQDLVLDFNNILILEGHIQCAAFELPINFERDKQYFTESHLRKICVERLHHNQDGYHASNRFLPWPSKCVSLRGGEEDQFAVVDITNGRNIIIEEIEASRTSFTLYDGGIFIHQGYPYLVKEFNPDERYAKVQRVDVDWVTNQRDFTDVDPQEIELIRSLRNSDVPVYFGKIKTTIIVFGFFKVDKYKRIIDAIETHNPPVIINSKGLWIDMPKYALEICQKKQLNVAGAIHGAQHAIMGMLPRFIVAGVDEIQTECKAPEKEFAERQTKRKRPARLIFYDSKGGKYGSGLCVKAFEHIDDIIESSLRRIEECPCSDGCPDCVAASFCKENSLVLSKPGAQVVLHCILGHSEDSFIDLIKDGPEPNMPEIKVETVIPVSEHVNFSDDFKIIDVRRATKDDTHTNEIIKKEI

Binder | Kd
TTTTTTTTTTTTTTTTTTTTTTTTTTTTTTTTTTTTTTTT (ssDNA) [Poly(dT) 40mer ssDNA] | 3.45 ± 0.19 nM
B1 | 79.2 ± 22.7 nM
B2 | 9.9 ± 0.7 nM
B3 | 17.6 ± 2.2 nM
B4 | 6.5 ± 0.5 nM
B5 | 3.5 ± 0.4 nM
B6 | 15.7 ± 1.7 nM
B8 | 141 ± 59.4 nM
B9 | 154 ± 44.6 nM
B10 | 36.1 ± 4.9 nM
